Test results: the supplement of paper PMC10567573

B1: TSN (parent)
chain: FVELQGFLAAEQDIREEIRKVVQS
B2: SMOC2 (parent)
chain: PALETQPQGDEEDIASRYPTLWTE

Variants of: B1
Assay: protein stability index of a GFP-peptide fusion (GPS, HEK-293T) (PSI 1-6); higher = more stable
Conditions: c terminus: a fixed tail appended
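Also: lentivirally expressed fusions sorted by FACS into six bins by GFP to DsRed ratio, PSI derived from sequencing read proportions per bin multiplied by bin number.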

Protein stability index: each site, then its substitutions
F7: M 2.01 | D 2.84 | A 1.64 | G 2.33 | T 2 | K 1.31 | N 2.71 | Y 1.33 | E 3.11 | R 2.04 | C 2.68 | V 2.04 | H 2.14
V2: R 3.34 | M 2.3 | A 2.37 | S 1.65 | W 1.33 | G 1.75 | F 1.75 | N 3.06 | T 1.68 | Y 2.31 | D 4.19 | E 3.95 | P 2.47 | K 3.83 | L 1.67 | Q 1.17 | I 1.51
A10: H 1.74 | D 1.35 | E 4.05 | F 2.15 | M 2.2 | K 1.62 | R 1.8 | C 1.04 | I 2.04
G6: C 1.56 | M 2.16 | T 2.32 | N 2.42 | F 1.68 | I 2.19 | S 1.85 | E 2.06
A9: M 1.78 | K 1.73 | I 2.48 | E 2.47 | P 1.02 | N 2.25 | R 1.93 | W 3.23 | L 1.57 | Q 1.63 | G 1.62
Q5: W 1 | C 5.07 | V 2.38 | D 1.23 | K 2.12 | A 1.58
E3: Q 2.4 | Y 1.64 | T 2.59 | R 1.25 | S 2.08 | W 1.75 | M 2.97 | N 2.45 | H 2.9 | K 1.4 | C 2.23 | P 1.53 | F 1.6
E11: N 2.16 | F 1.29 | D 1.39 | I 1.86 | L 2.02 | Y 2.09 | C 1.92 | A 1.05 | R 2.52 | K 2.13 | W 3.13
L4: D 2.22 | M 2.15 | R 1.97 | T 3.35 | E 2.17 | H 1.52 | K 1.8 | Q 1.35 | N 1.43 | W 1.21 | I 1.79
F1: C 3.1 | R 3.12 | T 3.62 | A 3.48 | I 2.08 | P 2.9 | L 4.18 | W 1.14 | N 3.67 | G 3.24 | K 3.83 | H 3.96 | Y 3.21
L8: C 1.83 | R 3.58 | N 2.31 | K 1.72 | Y 1.8 | E 2.44 | G 1.07 | M 2.07 | S 1.47 | Q 1.37 | D 2.68 | P 2.99
Q12: A 3.3

Variants of: B2
Assay: as above
Conditions: c terminus: a fixed tail appended

Protein stability index, by site and new letter:
L21: W 5.13 | H 5.91 | Y 3.92 | A 5.65 | I 5.53 | V 4.75 | N 5.73 | C 4.64 | S 4.75 | M 5.37 | P 5.64 | E 5.39 | K 5.12 | Q 5.66 | T 3.98 | F 4.27 | D 5.72 | R 4.91
D13: T 4.23 | R 4.14 | Q 4.21 | Y 3.59 | V 3.93 | W 4.68 | S 3.97
A15: V 3.87 | W 4.14 | E 4.29 | N 4.36 | H 4.11 | K 3.78 | M 4.67 | C 4.1 | L 4.76 | R 4.53 | G 4.63 | Q 4.42 | I 4.57 | D 4.33 | T 4.36 | Y 4.53 | F 4.34 | S 3.88
I14: D 5.77 | F 4.42 | V 4.19 | Q 4.4 | C 4.14 | S 4.64 | Y 4.39 | P 4.99 | W 3.97 | N 5.01 | T 5.06 | E 4.79 | G 4.53 | M 3.95 | H 4.65 | K 3.96 | A 4.79
W22: F 5.71 | L 5.78 | I 5.58 | K 5.3 | Y 4.73 | E 5.2 | H 5.48 | N 5.8 | S 5.77 | P 5.92 | A 5.45 | C 5.32 | G 4.47 | M 5.49 | T 5.67 | Q 5.51 | D 5.62 | R 5.39 | V 5.9
T20: R 3.88 | N 4.27 | K 4.37 | F 4.6 | I 3.3 | H 4.87 | P 4.78 | D 5.59 | A 4.31 | M 4.4 | Y 4.1 | V 3.99 | C 3.77 | Q 3.83 | W 4.67 | E 4.41 | G 4.41 | L 4.66
E24: C 4.22 | S 4.78 | V 4.22 | Q 4.82 | R 4.81 | T 4.65 | D 4.68 | F 4.17 | P 5.1 | K 5.17 | A 4.67 | I 3.97 | M 3.94 | L 4.19 | G 5.22 | W 4.17 | H 4.47 | N 3.73 | Y 4.41
Y18: R 4.53 | E 4.74 | D 5.89 | W 4.6 | V 4.07 | K 3.34 | Q 4.39 | N 4.24 | C 4.32 | L 4.42 | S 4.65 | T 4.67 | G 4.61 | F 4.25 | A 4.64 | H 4.87 | M 4.59 | P 4.14 | I 4.18
R17: I 4.73 | W 4.2 | C 3.2 | A 4.81 | T 4.29 | M 4.94 | Q 4.78 | E 4.5 | V 4.36 | P 4.53 | N 4.23 | H 4.38 | F 3.82 | G 4.71 | S 4.26 | L 4.72 | Y 3.69 | D 4.94 | K 4.35
P19: S 4.6 | F 4.87 | K 4.32 | Y 4.45 | E 5.49 | V 5.11 | T 4.53 | R 4.2 | Q 5.13 | C 5.15 | N 4.72 | L 4.87 | H 4.18 | M 4.32 | D 4.97 | I 4.24 | A 5.73 | G 4.87
T23: Y 5.37 | F 5.22 | K 4.58 | W 5.08 | D 5.55 | S 5.28 | P 5.28 | I 4.28 | C 5.02 | H 5.75 | M 5.08 | N 5.66 | Q 4.43 | E 5.39 | L 5.29 | V 2.74 | A 4.21 | R 5.13
S16: L 4.81 | M 5.09 | G 5.21 | C 4.63 | K 4.18 | N 4.56 | Y 4.31 | T 4.39 | D 4.76 | V 5.14 | A 4.5 | W 3.99 | Q 5.17 | F 4.61 | E 4.94 | P 5.27 | R 4.3 | H 3.96 | I 4.52
